Measurements as given in IntAct's records for PubMed 25416956.

Key:
atrap_human AGTRAP = atrap_human AGTRAP (UniProt Q6RW13)
tm239_human TMEM239 [1] = target: tm239_human TMEM239 (UniProt Q8WW34)
ldaf1_human LDAF1 [2] = target: ldaf1_human LDAF1 (UniProt Q96B96)
reep6_human REEP6 [3] = target: reep6_human REEP6 (UniProt Q96HR9)
tfp11_human TFIP11 [4] = target: tfp11_human TFIP11 (UniProt Q9UBB9)
praf1_human RABAC1 [5] = target: praf1_human RABAC1 (UniProt Q9UI14)
tm239_human TMEM239 [6] = target: tm239_human TMEM239 (UniProt Q8WW34); remark: listed apart in the source
ldaf1_human LDAF1 [7] = target: ldaf1_human LDAF1 (UniProt Q96B96); remark: listed apart in the source
reep6_human REEP6 [8] = target: reep6_human REEP6 (UniProt Q96HR9); remark: listed apart in the source
tfp11_human TFIP11 [9] = target: tfp11_human TFIP11 (UniProt Q9UBB9); remark: listed apart in the source
praf1_human RABAC1 [10] = target: praf1_human RABAC1 (UniProt Q9UI14); remark: listed apart in the source
tm239_human TMEM239 [11] = target: tm239_human TMEM239 (UniProt Q8WW34); remark: listed apart in the source
ldaf1_human LDAF1 [12] = target: ldaf1_human LDAF1 (UniProt Q96B96); remark: listed apart in the source
reep6_human REEP6 [13] = target: reep6_human REEP6 (UniProt Q96HR9); remark: listed apart in the source
tfp11_human TFIP11 [14] = target: tfp11_human TFIP11 (UniProt Q9UBB9); remark: listed apart in the source
praf1_human RABAC1 [15] = target: praf1_human RABAC1 (UniProt Q9UI14); remark: listed apart in the source

Measured: effect of a mutation on the interaction

Sequence of ldaf1_human LDAF1 (Q96B96 whole entry): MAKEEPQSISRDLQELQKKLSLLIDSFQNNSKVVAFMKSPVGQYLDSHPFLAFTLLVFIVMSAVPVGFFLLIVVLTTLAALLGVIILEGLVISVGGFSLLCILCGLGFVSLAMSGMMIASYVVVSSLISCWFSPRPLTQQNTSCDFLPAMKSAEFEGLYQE
Sequence of tm239_human TMEM239 (Q8WW34 whole entry): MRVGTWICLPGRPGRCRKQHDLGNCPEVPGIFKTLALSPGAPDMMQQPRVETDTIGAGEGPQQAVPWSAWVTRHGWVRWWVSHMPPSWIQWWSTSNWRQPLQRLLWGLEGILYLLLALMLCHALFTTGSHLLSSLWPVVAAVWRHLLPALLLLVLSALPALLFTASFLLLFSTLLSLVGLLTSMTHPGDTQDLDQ
Sequence of reep6_human REEP6 (Q96HR9 whole entry): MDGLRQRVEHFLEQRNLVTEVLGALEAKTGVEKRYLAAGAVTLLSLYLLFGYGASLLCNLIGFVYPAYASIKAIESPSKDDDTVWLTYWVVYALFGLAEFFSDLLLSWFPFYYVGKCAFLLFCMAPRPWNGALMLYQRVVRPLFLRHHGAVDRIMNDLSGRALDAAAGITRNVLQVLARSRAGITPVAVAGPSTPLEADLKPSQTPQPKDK
Sequence of tfp11_human TFIP11 (Q9UBB9 whole entry): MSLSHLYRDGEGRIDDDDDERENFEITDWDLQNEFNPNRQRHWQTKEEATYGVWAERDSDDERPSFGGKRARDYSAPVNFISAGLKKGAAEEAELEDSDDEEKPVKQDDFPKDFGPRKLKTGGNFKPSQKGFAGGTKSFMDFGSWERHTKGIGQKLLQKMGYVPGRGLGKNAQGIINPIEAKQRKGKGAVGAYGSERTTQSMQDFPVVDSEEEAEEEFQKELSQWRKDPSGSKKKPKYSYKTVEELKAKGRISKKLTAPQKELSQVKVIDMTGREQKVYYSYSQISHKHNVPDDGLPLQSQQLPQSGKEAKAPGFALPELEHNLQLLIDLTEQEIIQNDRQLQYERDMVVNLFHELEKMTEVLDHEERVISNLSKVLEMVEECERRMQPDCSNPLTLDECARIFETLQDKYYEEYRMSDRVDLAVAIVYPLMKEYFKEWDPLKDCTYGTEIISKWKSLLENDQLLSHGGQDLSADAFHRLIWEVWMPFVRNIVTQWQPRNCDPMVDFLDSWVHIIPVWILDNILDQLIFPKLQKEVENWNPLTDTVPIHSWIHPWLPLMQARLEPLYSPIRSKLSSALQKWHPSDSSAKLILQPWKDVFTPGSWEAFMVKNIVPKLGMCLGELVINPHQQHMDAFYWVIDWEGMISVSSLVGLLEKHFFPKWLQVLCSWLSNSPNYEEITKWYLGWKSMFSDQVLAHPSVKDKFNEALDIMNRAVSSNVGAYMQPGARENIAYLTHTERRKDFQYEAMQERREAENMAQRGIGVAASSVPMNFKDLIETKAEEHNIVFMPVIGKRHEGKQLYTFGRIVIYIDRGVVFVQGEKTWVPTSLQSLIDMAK
Sequence of praf1_human RABAC1 (Q9UI14 whole entry): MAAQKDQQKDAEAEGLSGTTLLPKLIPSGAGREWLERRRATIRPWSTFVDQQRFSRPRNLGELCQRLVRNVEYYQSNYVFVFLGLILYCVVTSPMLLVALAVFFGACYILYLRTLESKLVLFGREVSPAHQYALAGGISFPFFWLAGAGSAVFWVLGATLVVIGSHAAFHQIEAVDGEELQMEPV
Sequence of atrap_human AGTRAP (Q6RW13 whole entry): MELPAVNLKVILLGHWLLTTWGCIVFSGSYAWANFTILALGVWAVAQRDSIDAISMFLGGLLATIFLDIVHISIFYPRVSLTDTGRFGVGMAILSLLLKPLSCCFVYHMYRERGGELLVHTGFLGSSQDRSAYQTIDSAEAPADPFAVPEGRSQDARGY

Atypical kinase COQ8A, mitochondrial (Homo sapiens), Q8NI60 R213W
disrupting interaction: atrap_human AGTRAP | tm239_human TMEM239 [1] | ldaf1_human LDAF1 [2] | reep6_human REEP6 [3] | tfp11_human TFIP11 [4] | praf1_human RABAC1 [5]

Atypical kinase COQ8A, mitochondrial (Homo sapiens), Q8NI60 G272V
disrupting interaction: tm239_human TMEM239 [6] | ldaf1_human LDAF1 [7] | reep6_human REEP6 [8] | tfp11_human TFIP11 [9] | praf1_human RABAC1 [10]

Atypical kinase COQ8A, mitochondrial (Homo sapiens), Q8NI60 E551K
disrupting interaction: tm239_human TMEM239 [11] | ldaf1_human LDAF1 [12] | reep6_human REEP6 [13] | tfp11_human TFIP11 [14] | praf1_human RABAC1 [15]
